In US20160319032A1 (MEDLMMUNE, published 2016):
Numbering of substitutions follows the chain as printed. Like-named read-outs stand apart in the source and are kept apart here. One block for each binder: values may come before it.

What was measured:
[1] = target: T1, α4β1 integrin on J6.77 cells (UniProt P13612 34-1032; P05556 21-798); test: cell-based or functional assay
[2] = target: T2, human αVβ6 integrin on cells (human, UniProt P06756 31-1048; P18564 22-788); test: FMAT, supernatant, HEK 293 cells stably overexpressing αVβ6
T2 construct: whole, on cells; Species is stated for K562 and CHO transfectants only

[3] = target: T2, human αVβ6 integrin on cells; test: cell-based or functional assay
[4] = target: T2, human αVβ6 integrin on cells; test: cell-based or functional assay; remark: listed apart in the source
[5] = target: T3, cynomolgus αVβ6 on cells (cynomolgus); test: FACS, supernatant, HEK-293 transfected with cynomolgus αV and β6
T3 construct: whole, on cells; also called macaque αVβ6; Mac AVB6

[6] = target: T1, α4β1 integrin on J6.77 cells; test: cell-based or functional assay; remark: listed apart in the source
[7] = target: T4, α5β1 integrin on K562 cells (UniProt P08648 42-1049; P05556 21-798); test: cell-based or functional assay
[8] = target: T5, cynomolgus αV on transfected HEK-293 cells (cynomolgus); test: FACS, purified mAb, transfected HEK-293 (parental: 74)
T5 construct: whole, on cells; Transfected alone into human HEK-293 cells; also called Cynomolgus alphaV

[9] = target: T6, mouse αV on transfected HEK-293 cells (mouse, UniProt P43406 31-1044); test: as above
T6 construct: whole, on cells; Transfected alone into human HEK-293 cells; also called Mouse alpha V

[10] = target: T3, cynomolgus αVβ6 on cells; test: as above
[11] = target: T4, α5β1 integrin on K562 cells; test: cell-based or functional assay; remark: listed apart in the source
[12] = target: human αV on parental A375M cells (αVβ3 and αVβ5 integrins) (human, UniProt P06756 31-1048); test: cell-based or functional assay
[13] = target: T2, human αVβ6 integrin on cells; test: cell-based or functional assay; remark: listed apart in the source
[14] = target: T2, human αVβ6 integrin on cells; test: cell-based or functional assay; remark: listed apart in the source
[15] = target: T2, human αVβ6 integrin on cells; test: cell-based or functional assay; remark: listed apart in the source

T2 sequence (P06756 31-1048, chain 1 of 2): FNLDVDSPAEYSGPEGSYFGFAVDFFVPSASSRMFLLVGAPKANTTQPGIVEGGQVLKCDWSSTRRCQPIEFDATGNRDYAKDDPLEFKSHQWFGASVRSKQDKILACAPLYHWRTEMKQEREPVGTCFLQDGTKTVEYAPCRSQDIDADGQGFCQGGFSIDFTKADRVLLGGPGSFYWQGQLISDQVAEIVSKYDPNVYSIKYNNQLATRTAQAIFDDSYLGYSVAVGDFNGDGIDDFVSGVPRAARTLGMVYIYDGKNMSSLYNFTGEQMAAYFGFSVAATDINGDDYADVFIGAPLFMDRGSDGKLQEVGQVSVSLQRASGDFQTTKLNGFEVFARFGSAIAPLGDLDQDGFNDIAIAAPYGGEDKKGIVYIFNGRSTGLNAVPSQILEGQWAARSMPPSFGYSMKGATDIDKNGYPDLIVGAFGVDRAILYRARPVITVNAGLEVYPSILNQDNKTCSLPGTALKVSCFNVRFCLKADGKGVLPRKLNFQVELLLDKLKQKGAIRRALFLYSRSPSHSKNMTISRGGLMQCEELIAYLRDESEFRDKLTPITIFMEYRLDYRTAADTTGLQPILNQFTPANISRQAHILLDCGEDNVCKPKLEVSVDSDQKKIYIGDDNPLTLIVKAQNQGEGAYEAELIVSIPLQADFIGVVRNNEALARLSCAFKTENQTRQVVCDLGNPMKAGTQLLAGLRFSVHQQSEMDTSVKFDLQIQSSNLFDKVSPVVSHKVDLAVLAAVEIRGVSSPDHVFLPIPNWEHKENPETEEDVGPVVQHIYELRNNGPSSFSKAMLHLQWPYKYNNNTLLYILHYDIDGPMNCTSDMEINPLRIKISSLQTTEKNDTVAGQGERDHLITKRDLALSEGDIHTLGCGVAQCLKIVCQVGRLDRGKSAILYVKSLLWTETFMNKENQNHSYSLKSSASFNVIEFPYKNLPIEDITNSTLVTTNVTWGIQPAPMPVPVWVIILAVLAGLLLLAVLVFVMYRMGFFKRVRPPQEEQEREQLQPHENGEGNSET
T2 sequence (P18564 22-788, chain 2 of 2): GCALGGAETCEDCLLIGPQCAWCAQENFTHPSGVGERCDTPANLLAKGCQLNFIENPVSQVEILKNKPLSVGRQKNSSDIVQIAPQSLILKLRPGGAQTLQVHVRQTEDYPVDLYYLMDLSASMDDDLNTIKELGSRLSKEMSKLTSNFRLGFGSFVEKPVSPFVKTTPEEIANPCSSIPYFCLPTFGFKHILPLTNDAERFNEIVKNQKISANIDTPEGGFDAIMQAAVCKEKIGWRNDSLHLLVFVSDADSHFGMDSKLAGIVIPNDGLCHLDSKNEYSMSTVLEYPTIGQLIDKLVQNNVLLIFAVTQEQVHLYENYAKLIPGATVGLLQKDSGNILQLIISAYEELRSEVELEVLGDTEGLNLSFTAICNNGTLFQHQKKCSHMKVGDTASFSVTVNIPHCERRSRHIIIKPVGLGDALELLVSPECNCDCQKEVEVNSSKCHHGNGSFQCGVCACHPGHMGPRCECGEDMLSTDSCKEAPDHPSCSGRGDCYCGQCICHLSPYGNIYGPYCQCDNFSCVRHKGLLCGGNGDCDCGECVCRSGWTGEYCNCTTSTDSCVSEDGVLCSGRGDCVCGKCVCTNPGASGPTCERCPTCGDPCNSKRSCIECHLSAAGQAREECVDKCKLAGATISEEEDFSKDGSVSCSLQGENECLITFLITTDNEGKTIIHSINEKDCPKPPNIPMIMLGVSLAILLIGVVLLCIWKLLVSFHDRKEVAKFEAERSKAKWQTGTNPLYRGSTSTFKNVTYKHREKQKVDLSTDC
T4 sequence (P08648 42-1049, chain 1 of 2): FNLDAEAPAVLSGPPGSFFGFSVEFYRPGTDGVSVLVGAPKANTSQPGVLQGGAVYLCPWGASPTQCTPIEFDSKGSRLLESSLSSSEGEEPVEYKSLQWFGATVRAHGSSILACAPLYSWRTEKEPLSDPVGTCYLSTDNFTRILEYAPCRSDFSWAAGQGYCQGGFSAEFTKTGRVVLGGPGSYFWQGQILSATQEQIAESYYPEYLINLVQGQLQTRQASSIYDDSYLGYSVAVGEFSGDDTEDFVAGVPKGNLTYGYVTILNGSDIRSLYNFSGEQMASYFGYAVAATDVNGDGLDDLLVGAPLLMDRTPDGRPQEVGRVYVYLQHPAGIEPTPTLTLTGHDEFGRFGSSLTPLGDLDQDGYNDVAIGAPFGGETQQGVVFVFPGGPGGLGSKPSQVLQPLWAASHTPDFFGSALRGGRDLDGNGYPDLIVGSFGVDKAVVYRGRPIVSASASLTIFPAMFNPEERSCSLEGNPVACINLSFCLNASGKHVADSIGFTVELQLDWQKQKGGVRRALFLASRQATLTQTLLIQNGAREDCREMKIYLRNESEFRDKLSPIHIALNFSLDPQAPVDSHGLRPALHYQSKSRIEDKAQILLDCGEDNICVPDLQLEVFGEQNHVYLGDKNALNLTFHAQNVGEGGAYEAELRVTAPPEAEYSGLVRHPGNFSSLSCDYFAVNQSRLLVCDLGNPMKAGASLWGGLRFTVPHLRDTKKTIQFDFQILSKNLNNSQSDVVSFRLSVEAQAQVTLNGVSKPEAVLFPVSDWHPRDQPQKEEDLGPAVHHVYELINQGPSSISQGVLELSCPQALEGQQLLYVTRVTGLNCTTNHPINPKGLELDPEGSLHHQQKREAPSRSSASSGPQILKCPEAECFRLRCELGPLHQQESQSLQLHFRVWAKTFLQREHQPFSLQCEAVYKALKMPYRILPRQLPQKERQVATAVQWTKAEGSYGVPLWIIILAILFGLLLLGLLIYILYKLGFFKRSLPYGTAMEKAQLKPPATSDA
T4 sequence (P05556 21-798, chain 2 of 2): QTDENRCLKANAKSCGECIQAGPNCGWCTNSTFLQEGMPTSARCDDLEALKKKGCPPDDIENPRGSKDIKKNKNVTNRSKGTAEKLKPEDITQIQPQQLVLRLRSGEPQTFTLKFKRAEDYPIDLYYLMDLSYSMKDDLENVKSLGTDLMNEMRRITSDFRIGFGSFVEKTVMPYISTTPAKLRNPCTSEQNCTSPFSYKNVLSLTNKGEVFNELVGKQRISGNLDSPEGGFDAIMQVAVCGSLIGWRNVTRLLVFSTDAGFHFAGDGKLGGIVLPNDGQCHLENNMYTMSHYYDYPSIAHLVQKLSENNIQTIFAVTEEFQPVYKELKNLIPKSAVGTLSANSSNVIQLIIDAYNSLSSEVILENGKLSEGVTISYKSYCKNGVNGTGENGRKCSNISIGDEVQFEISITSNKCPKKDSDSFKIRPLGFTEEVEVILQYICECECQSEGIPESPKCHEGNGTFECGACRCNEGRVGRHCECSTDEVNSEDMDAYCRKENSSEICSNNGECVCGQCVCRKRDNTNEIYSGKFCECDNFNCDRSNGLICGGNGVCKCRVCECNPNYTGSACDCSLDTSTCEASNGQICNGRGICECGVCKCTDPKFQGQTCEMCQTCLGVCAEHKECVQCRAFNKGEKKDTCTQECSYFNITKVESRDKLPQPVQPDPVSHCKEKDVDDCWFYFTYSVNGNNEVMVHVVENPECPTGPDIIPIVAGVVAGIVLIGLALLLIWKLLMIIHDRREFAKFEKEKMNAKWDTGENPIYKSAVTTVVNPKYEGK
Chain of human αV on parental A375M cells (αVβ3 and αVβ5 integrins) (P06756 31-1048 A375M, form in doubt): as the sequence (P06756 31-1048, chain 1 of 2) above, with A345M counted along it
T6 sequence (P43406 31-1044): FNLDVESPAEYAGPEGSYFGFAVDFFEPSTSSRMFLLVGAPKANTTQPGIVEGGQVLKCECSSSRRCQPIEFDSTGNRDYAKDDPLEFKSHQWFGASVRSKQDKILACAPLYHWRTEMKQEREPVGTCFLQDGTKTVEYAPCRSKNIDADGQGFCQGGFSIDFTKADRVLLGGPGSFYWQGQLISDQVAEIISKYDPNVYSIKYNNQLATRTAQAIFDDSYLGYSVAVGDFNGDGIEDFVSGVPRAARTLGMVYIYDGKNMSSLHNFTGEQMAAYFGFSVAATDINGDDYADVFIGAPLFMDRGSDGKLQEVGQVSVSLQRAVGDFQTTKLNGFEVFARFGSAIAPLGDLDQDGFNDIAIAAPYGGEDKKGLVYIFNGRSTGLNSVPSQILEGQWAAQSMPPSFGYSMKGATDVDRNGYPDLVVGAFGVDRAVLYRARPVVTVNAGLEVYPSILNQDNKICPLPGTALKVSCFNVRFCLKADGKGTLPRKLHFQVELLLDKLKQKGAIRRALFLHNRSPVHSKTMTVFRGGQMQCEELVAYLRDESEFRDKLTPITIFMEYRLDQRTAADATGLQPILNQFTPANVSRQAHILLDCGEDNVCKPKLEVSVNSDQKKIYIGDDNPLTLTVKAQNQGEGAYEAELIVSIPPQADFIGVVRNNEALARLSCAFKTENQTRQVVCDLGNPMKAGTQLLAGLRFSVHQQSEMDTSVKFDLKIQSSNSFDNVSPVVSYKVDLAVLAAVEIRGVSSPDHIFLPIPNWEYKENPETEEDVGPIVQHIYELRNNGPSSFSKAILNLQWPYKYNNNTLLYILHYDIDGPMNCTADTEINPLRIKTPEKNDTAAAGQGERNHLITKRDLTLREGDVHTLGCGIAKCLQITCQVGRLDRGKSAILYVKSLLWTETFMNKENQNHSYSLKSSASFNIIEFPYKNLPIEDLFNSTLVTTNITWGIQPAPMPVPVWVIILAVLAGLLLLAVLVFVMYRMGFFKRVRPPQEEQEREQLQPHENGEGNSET

Percent Inhibition of J6.77 adhesion to CS-1 peptide, 5 ug/ml [1]: -17%
FMAT FL1XCount [2]: 10700
Assay 1 % Inhibition of adhesion [3]: 98%
Assay 2 % Inhibition of adhesion [3]: 101%
Average % Inhibition of adhesion [3]: 100%
Estimated IC50, adhesion assay, n = 1 [4]: 1.46 µg/mL
Estimated IC50, adhesion assay, n = 2 [4]: 0.54 µg/mL
Estimated IC50, adhesion assay, n = 3 [4]: 0.72 µg/mL
B1: sc 277 (antibody, V domains shown)
VH: EVQLVQSGAEVKKPGESLKISCKGSGYSFPSYWIGWVRQMPGKGLEWMGIIYPGDSDTRYSPSFQGQVTISADKSISTAYLQWSSLKASDTAMYYCARHPMEDGMDVWGQGTTVTVSS
VL: SYELTQPPSVSVSPGQTARITCSGDALPKKYAFWYQQKSGQAPVLVIYDDNKRPSGIPERFSGSSSGTMATLTITGAQVEDEADYYCYSTDSSGHHVFGGGTKLTVL
notes: lambda light chain

% Cells Shifted [5]: 23%
GeoMean [5]: 30.2
B2: sc 49 (antibody, V domains shown)
VH: QVQLQESGPGLVKPSQTLSLTCTVAGGSIRSGDYYWSWIRQHPGKGLEWIGNIYYSGSTYYNPSLKSRITISVATSRNQFSLKLTSVTAADTAVYYCARGGAITIFGVFDYWGQGTLVTVSS
VL: not shown
notes: kappa light chain; also called sc 049

Percent Inhibition of J6.77 adhesion to CS-1 peptide, 5 ug/ml [6]: -30%
Percent Inhibition of J6.77 adhesion to CS-1 peptide, 5 ug/ml [1]: -8%
% Inhibition of K562 adhesion to fibronectin [7]: 3%
% Cells Shifted [5]: 55%
GeoMean [5]: 66.4
percent of cells shifted [8]: 70%
percent of cells shifted [9]: 71%
percent of cells shifted [10]: 54%
Percent Inhibition of K562 adhesion to FN9-10, 5 ug/ml [11]: -4%
Percent Inhibition of A375M adhesion to osteopontin peptide, 5 ug/ml [12]: 3%
B3: sc 264 (antibody, V domains shown)
VH: QVQLQESGPGLVKPSQTLSLTCTVSGGSISSGGYYWSWIRQHPGKGLEWIGYIYYSGRTYNNPSLKSRVTISVDTSKNQFSLKLSSVTAADTAVYYCARVATGRGDYHFYAMDVWGQGTTVTVSS
VL: SYELTQPSSVSVSPGQTARITCSGDVLAKKSARWFHQKPGQAPVLVIYKDSERPSGIPERFSGSSSGTTVTLTISGAQVEDEAAYYCYSAADNNLVFGGGTKLTVL
notes: lambda light chain

Percent Inhibition of J6.77 adhesion to CS-1 peptide, 5 ug/ml [6]: -2%
% Inhibition of K562 adhesion to fibronectin [7]: 6%
Percent Internalization, 1 ug/ml [13]: 31%
Percent Internalization, 10 ug/ml [13]: 42%
IC50, adhesion of HT29 cells, n = 1 [14]: 0.013 µg/mL
IC50, adhesion of HT29 cells, n = 2 [14]: 0.013 µg/mL
IC50, adhesion of HT29 cells, n = 3 [14]: 0.039 µg/mL
B4: sc 264 RAD (antibody, V domains shown)
VH: B3 VH with G105A
VL: B3 VL

Percent Inhibition of J6.77 adhesion to CS-1 peptide, 5 ug/ml [1]: 0%
FMAT FL1XCount [2]: 1.6e+06
Percent Internalization, 1 ug/mL [15]: 39%
Percent Internalization, 10 ug/mL [15]: 49%
Assay 1 % Inhibition of adhesion [3]: 98%
Assay 2 % Inhibition of adhesion [3]: 106%
Average % Inhibition of adhesion [3]: 102%
Percent Inhibition of K562 adhesion to FN9-10, 5 ug/ml [11]: -9%
Estimated IC50, adhesion assay, n = 1 [4]: 0.063 µg/mL
Estimated IC50, adhesion assay, n = 2 [4]: 0.037 µg/mL
Estimated IC50, adhesion assay, n = 3 [4]: 0.037 µg/mL
B5: sc 254 (antibody, V domains shown)
VH: QVQLQESGPGLVKPSQTLSLTCTVSGGSISSGGYYWSWIRQHPGKGLEWIGYIYYSGSTYYNPSLKSRVTISVDTSKNQFSLKLSSVTAADTAMYYCARYRGPAAGRGDFYYFGMDVWGQGTTVTVSS
VL: DIVMTQTPLSLSVTPGQPASIFCKSSQSLLNSDGKTYLCWYLQKPGQPPQLLIYEVSNRFSGVPDRFSGSGSGTDFTLKISRVEAEDVGVYYCMQGIQLPWAFFGQGTKVEIK
notes: kappa light chain

Percent Inhibition of J6.77 adhesion to CS-1 peptide, 5 ug/ml [1]: 12%
FMAT FL1XCount [2]: 16700
Assay 1 % Inhibition of adhesion [3]: 98%
Assay 2 % Inhibition of adhesion [3]: 106%
Average % Inhibition of adhesion [3]: 102%
Estimated IC50, adhesion assay, n = 1 [4]: 2.41 µg/mL
Estimated IC50, adhesion assay, n = 2 [4]: 0.137 µg/mL
B6: sc 161 (antibody, V domains shown)
VH: EVQLVQSGAEVKKPGESLKISCKGSGYSFTSYWIGWVRQMPGKGLEWMGIIYPGDSDTRYSPSFQGQVTISADKSISTAYLQWSSLKASDTAMYYCARHGIAAAGFYYYYMDVWGQGTTVTVSS
VL: EIVLTQSPDTLSLSPGERASLSCRASQNVNRNYLVWYQQKPGQAPRLLIYGTSNRATGIPDRFSGSGSGTDFTLTISRLEPEDFAVYYCQQCGSLPFTFGPGTKVDIKR
notes: kappa light chain

Percent Inhibition of J6.77 adhesion to CS-1 peptide, 5 ug/ml [6]: 2%
Percent Inhibition of J6.77 adhesion to CS-1 peptide, 5 ug/ml [1]: -10%
% Inhibition of K562 adhesion to fibronectin [7]: -5%
FMAT FL1XCount [2]: 79800
Percent Internalization, 1 ug/ml [13]: 27%
Percent Internalization, 10 ug/ml [13]: 18%
IC50, adhesion of HT29 cells, n = 1 [14]: 0.125 µg/mL
IC50, adhesion of HT29 cells, n = 2 [14]: 0.157 µg/mL
IC50, adhesion of HT29 cells, n = 3 [14]: 0.064 µg/mL
Percent Internalization, 1 ug/mL [15]: 34%
Percent Internalization, 10 ug/mL [15]: 38%
Assay 1 % Inhibition of adhesion [3]: 99%
Assay 2 % Inhibition of adhesion [3]: 103%
Average % Inhibition of adhesion [3]: 101%
Percent Inhibition of K562 adhesion to FN9-10, 5 ug/ml [11]: 5%
Estimated IC50, adhesion assay, n = 1 [4]: 0.041 µg/mL
Estimated IC50, adhesion assay, n = 2 [4]: 0.026 µg/mL
B7: sc 188 (antibody, V domains shown)
VH: QVQLQESGPGLVKPSQTLSLTCTVSGGSISSGVYYWTWIRQHPGNGLEWIGYIYYSGSTSYNPSLKSRVTISVDTSKKQFSLNLTSVTAADTAVYYCAREGPLRGDYYYGLDVWGQGTTVTVSS
VL: EIVLTQSPGTLSLSPGERATLSCRAGQTISSRYLAWYQQKPGQAPRPLIYGASSRATGIPDRFSGSGSGTDFTLTISRLEPEDFAVYYCQQYGSSPRTFGQGTKVEIK
notes: kappa light chain

Percent Inhibition of J6.77 adhesion to CS-1 peptide, 5 ug/ml [6]: -6%
% Inhibition of K562 adhesion to fibronectin [7]: -8%
Percent Internalization, 1 ug/ml [13]: 17%
Percent Internalization, 10 ug/ml [13]: 22%
IC50, adhesion of HT29 cells, n = 1 [14]: 0.022 µg/mL
IC50, adhesion of HT29 cells, n = 2 [14]: 0.024 µg/mL
IC50, adhesion of HT29 cells, n = 3 [14]: 0.067 µg/mL
B8: sc 188 SDM (antibody, V domains shown)
VH: B7 VH with N83K
VL: B7 VL

Percent Inhibition of J6.77 adhesion to CS-1 peptide, 5 ug/ml [1]: -14%
% Cells Shifted [5]: 25%
GeoMean [5]: 22.8
Assay 1 % Inhibition of adhesion [3]: 77%
Assay 2 % Inhibition of adhesion [3]: 46%
Average % Inhibition of adhesion [3]: 62%
Estimated IC50, adhesion assay, n = 1 [4]: 4.07 µg/mL
Estimated IC50, adhesion assay, n = 2 [4]: 2.03 µg/mL
Estimated IC50, adhesion assay, n = 3 [4]: 3.26 µg/mL
B9: sc 58 (antibody, V domains shown)
VH: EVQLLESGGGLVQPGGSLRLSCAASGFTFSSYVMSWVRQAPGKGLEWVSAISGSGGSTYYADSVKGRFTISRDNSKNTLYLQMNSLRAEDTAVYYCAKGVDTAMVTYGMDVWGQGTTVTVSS
VL: SYELTQPPSVSVSPGQTARITCSGDALPKKYAYWYQQKSGQAPVLVIYDDSKRPSGIPERFSGSSSGTMATLTISGAQVEDEADYYCYSTDSSGNHRVFGGGTKLTVL
notes: lambda light chain; also called sc 058

Percent Inhibition of J6.77 adhesion to CS-1 peptide, 5 ug/ml [1]: -8%
% Cells Shifted [5]: 19%
GeoMean [5]: 33.5
B10: sc 320 (antibody, V domains shown)
VH: EVQLVESGGGLVKPGGSLRLSCAASGYTFTNYIMHWVRQAPGKGLEWVSSISISSSYIYYADSVKGRFTISRDNAKNSLYLQMNSLRAEDTAVYYCARDPVPLERRDYYYGMDVWGQGTTVTVSS
VL: QSVLTQPPSMSAAPGQKVTISCSGSSSNIGNNYVSWYQQLPGTAPKLLIYDNNKRPSGIPDRFSGSKSGTSATLGITGLQTGDEADYYCGTWDSSLSAGVFGGGTKLTVL
notes: lambda light chain

Percent Inhibition of J6.77 adhesion to CS-1 peptide, 5 ug/ml [1]: -7%
% Cells Shifted [5]: 35%
GeoMean [5]: 37
B11: sc 97 (antibody, V domains shown)
VH: EVQLVQSGAEVKKPGESLKISCKGSGYSFTSYWIGWVRQMPGKGLEWMGIIYPGDSDTRYSPSFQGQVILSADKSISTAYLQWSSLKASDTAMYYCARHDESSGYYYVFDIWGQGTMVTVSS
VL: SYELTQPPSVSVSPGQTARITCSGDALPKKYAYWYQQKSGQAPVLVIYEDIKRPSGIPERFSGSSSGTMATLTISGAQVEDEADYYCYSTDSSGNHWVFFGGGTKLTVL
notes: lambda light chain; also called sc 097

Percent Inhibition of J6.77 adhesion to CS-1 peptide, 5 ug/ml [1]: -15%
% Cells Shifted [5]: 32%
GeoMean [5]: 35.2
Percent Inhibition of K562 adhesion to FN9-10, 5 ug/ml [11]: -12%
Percent Inhibition of A375M adhesion to osteopontin peptide, 5 ug/ml [12]: 3%
B12: sc 133 (antibody, V domains shown)
VH: QVQLVQSGAEVKKPGASVKVSCKASGYTFTGYYMHWVRQAPGQGLEWMGWINPKSGDTNYAQKFQGRVTLTRDTSTSTAYMELSRLRSDDTAVYYCARRLDVWGQGTTVTVSS
VL: QSVLTQPPSVSAAPGQKVTISCSGSSSNIGNNYVSWYQQLPGTAPKLLIYDNNKRPSGIPDRFSGSKSGTSATLGITGLQTGDEADYYCGTWNSSLSAGYVFGTGTKVTV
notes: lambda light chain; also called mAb sc 133
